Common to all, as to experiment: purified protein
Holding throughout (type): biochemical, Streptococcus agalactiae
Settings in all cases: 100 mM HEPES pH 7, 10 mM Mg2+, 0 mM NaCl, 30 °C, cooperative

Series [1] relates to Nc1ccn([C@@H]2O[C@H](COP(=O)(O)OP(=O)(O)OP(=O)(O)O)[C@@H](O)[C@H]2O)c(=O)n1.
Excerpt: (§1) malachite green phosphate release, Hill fit on SaNsrF (SaNsrFWT)
For series [2], the system named is Nc1nc2c(ncn2[C@@H]2O[C@H](COP(=O)(O)OP(=O)(O)OP(=O)(O)O)[C@@H](O)[C@H]2O)c(=O)[nH]1.
Excerpt: as §1
The test system of series [3] is O=c1ccn([C@@H]2O[C@H](COP(=O)(O)OP(=O)(O)OP(=O)(O)O)[C@@H](O)[C@H]2O)c(=O)[nH]1.
Excerpt: as §1

Turning to “SaNsrF (SaNsrFWT) (Streptococcus agalactiae 2603V/R)”, the K0.5 in series [1] was 1.23 ± 0.20 mM; in series [2] it was 0.69 ± 0.07 mM; in series [3], 0.90 ± 0.13 mM. In addition, the Vmax in series [1] was determined as 339.0 ± 30.4 nmol/min/mg; in series [2], 221.6 ± 11.1 nmol/min/mg; in series [3], 314.8 ± 23.4 nmol/min/mg.

As a reminder, the Vmax is the rate approached at saturating substrate.

These data come from PMC7494861, “Characterization of the nucleotide-binding domain NsrF from the BceAB-type ABC-transporter NsrFP from the human pathogen Streptococcus agalactiae” (Scientific Reports, 2020).
